In US20190177366A1 (published 2019):
Bridge positions count the residues as written; N and C are the ends. Ends that are not written are not given here.

Legend:
[1] = target: T1, proprotein convertase subtilisin/kexin type 9 (PCSK9) (human, UniProt Q8NBP7 31-152); experiment: competition
[2] = target: T1, proprotein convertase subtilisin/kexin …; experiment: phage competition ELISA; competing phage K9gvpep4
[3] = target: T1, proprotein convertase subtilisin/kexin …; experiment: phage competition ELISA; competing phage pep2-8

T1 sequence (Q8NBP7 31-152, chain 1 of 2): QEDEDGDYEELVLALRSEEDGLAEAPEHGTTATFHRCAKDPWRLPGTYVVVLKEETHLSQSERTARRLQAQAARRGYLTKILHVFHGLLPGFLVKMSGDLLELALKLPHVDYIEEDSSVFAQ
T1 sequence (Q8NBP7 153-692, chain 2 of 2): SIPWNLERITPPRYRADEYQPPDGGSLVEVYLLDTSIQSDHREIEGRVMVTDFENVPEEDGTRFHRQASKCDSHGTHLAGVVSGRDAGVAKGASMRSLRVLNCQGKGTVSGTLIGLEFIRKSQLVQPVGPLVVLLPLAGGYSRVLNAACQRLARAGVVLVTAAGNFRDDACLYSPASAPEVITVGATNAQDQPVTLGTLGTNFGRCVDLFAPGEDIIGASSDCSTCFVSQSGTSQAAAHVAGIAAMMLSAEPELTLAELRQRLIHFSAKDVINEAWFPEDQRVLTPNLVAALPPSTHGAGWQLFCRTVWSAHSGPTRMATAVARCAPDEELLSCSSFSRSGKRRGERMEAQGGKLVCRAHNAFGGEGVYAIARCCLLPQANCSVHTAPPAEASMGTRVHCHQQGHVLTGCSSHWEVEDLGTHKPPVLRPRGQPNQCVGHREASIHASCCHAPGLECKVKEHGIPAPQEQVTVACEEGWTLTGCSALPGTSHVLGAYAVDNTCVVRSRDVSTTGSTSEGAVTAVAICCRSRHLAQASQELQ

Row | Binder | IC50 [1] [nM] | IC50 [2] [nM] | IC50 [3] [nM]
1 | SGDLMPWNLVRIGLLR [K9gvpep7] | 635 | – | –
2 | Ac-TVFTSWEEYLDWVGSGCRLPWNLQRIGLPC-NH2 (disulfide 17-30 (inferred)) [Compound 19] | – | 3.44 | 6.19
3 | Ac-TVFTSWEEYLDWVGSGDLMPWNLVRIGLLR-NH2 [Compound 20] | – | 2.69 | 14.5
4 | SGCRLPWNLQRIGLPC (not fully specified (bridges); cysteine pairing not given here) [K9gvpep4] | 318 | – | –
